Biological target: T1, RNF31 UBA domain (Homo sapiens, UniProt Q96EP0)
T1 construct: RNF31 UBA domain protein (residues 480-639) with N-terminal Thioredoxin-TEV-6×his-yBBr-3C tags; Thioredoxin (N, cleaved yes); made in house; host or cells: E. coli BL21 (DE3) pLysS
T1 sequence (Q96EP0 480-639): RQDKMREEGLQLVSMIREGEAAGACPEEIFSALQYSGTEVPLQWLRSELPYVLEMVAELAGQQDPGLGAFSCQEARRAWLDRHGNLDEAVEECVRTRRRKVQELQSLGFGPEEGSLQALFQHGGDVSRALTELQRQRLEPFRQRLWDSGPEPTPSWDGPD
Test: Phage Library Screening with NGS, RNF31 UBA domain
Type: binding
Conditions: for Phage library screen NGS readout, Target Concentration 10 / Phage library screen NGS readout, Target Concentration 30 / Phage library screen NGS readout, Target Concentration 100 / Phage library screen NGS readout, Target Concentration 300 / Phage library screen NGS readout, Target Concentration 1000: RNF31 UBA domain cluster C46; for Phage library screen NGS readout, BLANK: cluster C46; for phage screen NGS read-out at Target Concentration 10 / phage screen NGS read-out at Target Concentration 30 / phage screen NGS read-out at Target Concentration 100 / phage screen NGS read-out at Target Concentration 300: no competitor

[1] = target concentration 1000, first column
[2] = target concentration 1000, second column

## DPAQMFCYSAAVYCAAF
  Phage library screen NGS readout, Target Concentration 10: 0
  Phage library screen NGS readout, Target Concentration 30: 0
  Phage library screen NGS readout, Target Concentration 100: 4
  Phage library screen NGS readout, Target Concentration 300: 5
[1]
  Phage library screen NGS readout, Target Concentration 1000: 8
[2]
  Phage library screen NGS readout, Target Concentration 1000: 4
Column 1 of 5
  Phage library screen NGS readout, BLANK: 0
Column 2 of 5
  Phage library screen NGS readout, BLANK: 0
Column 3 of 5
  Phage library screen NGS readout, BLANK: 0
Column 4 of 5
  Phage library screen NGS readout, BLANK: 0
Column 5 of 5
  Phage library screen NGS readout, BLANK: 0

## DPAEWICEMAAHNCLYM
  phage screen NGS read-out at Target Concentration 10: 0
  phage screen NGS read-out at Target Concentration 30: 1
  phage screen NGS read-out at Target Concentration 100: 1
  phage screen NGS read-out at Target Concentration 300: 1

## DPASIICMLAADNCLYE
  phage screen NGS read-out at Target Concentration 10: 0
  phage screen NGS read-out at Target Concentration 30: 0
  phage screen NGS read-out at Target Concentration 100: 0
  phage screen NGS read-out at Target Concentration 300: 0

## DPAQRQCLSAAVFCATL
  Phage library screen NGS readout, Target Concentration 10: 3
  Phage library screen NGS readout, Target Concentration 30: 24
  Phage library screen NGS readout, Target Concentration 100: 137
[1]
  Phage library screen NGS readout, Target Concentration 1000: 292
[2]
  Phage library screen NGS readout, Target Concentration 1000: 319
Column 1 of 5
  Phage library screen NGS readout, BLANK: 0
Column 2 of 5
  Phage library screen NGS readout, BLANK: 1
Column 3 of 5
  Phage library screen NGS readout, BLANK: 1
Column 4 of 5
  Phage library screen NGS readout, BLANK: 0
Column 5 of 5
  Phage library screen NGS readout, BLANK: 1

## DPAFFTCVYAAVTCEMT
  phage screen NGS read-out at Target Concentration 10: 0
  phage screen NGS read-out at Target Concentration 30: 0
  phage screen NGS read-out at Target Concentration 100: 0
  phage screen NGS read-out at Target Concentration 300: 3

## DPAFSTCIYAAVMCMDQ
  phage screen NGS read-out at Target Concentration 10: 0
  phage screen NGS read-out at Target Concentration 30: 0
  phage screen NGS read-out at Target Concentration 100: 3
  phage screen NGS read-out at Target Concentration 300: 19

## DPAFSQCVYAAWHCESL
  phage screen NGS read-out at Target Concentration 10: 1
  phage screen NGS read-out at Target Concentration 30: 0
  phage screen NGS read-out at Target Concentration 100: 2
  phage screen NGS read-out at Target Concentration 300: 7

## DPAQRDCFSAAVYCSFL
  phage screen NGS read-out at Target Concentration 30: 210
  phage screen NGS read-out at Target Concentration 100: 40
  phage screen NGS read-out at Target Concentration 300: 88

## DPAQQICLSAAVFCSIF
  phage screen NGS read-out at Target Concentration 10: 0
  phage screen NGS read-out at Target Concentration 30: 0
  phage screen NGS read-out at Target Concentration 100: 4
  phage screen NGS read-out at Target Concentration 300: 10

## DPAITHCTAAAMWCHLL
  phage screen NGS read-out at Target Concentration 10: 1
  phage screen NGS read-out at Target Concentration 30: 0
  phage screen NGS read-out at Target Concentration 100: 9
  phage screen NGS read-out at Target Concentration 300: 80

## DPAHEHCTAAASWCYIL
  phage screen NGS read-out at Target Concentration 10: 0
  phage screen NGS read-out at Target Concentration 30: 0
  phage screen NGS read-out at Target Concentration 100: 3
  phage screen NGS read-out at Target Concentration 300: 8

## DPAFSQCVYAAVVCEVQ
  phage screen NGS read-out at Target Concentration 10: 2
  phage screen NGS read-out at Target Concentration 30: 0
  phage screen NGS read-out at Target Concentration 100: 11
  phage screen NGS read-out at Target Concentration 300: 55

## DPAAFVCEMAANDCLYT
  phage screen NGS read-out at Target Concentration 10: 0
  phage screen NGS read-out at Target Concentration 30: 1
  phage screen NGS read-out at Target Concentration 100: 0
  phage screen NGS read-out at Target Concentration 300: 2

## DPAFSTCVYAAIICNDT
  phage screen NGS read-out at Target Concentration 10: 0
  phage screen NGS read-out at Target Concentration 30: 0
  phage screen NGS read-out at Target Concentration 100: 7
  phage screen NGS read-out at Target Concentration 300: 29

## DPASMVCLSAAVYCAMH
  phage screen NGS read-out at Target Concentration 10: 1
  phage screen NGS read-out at Target Concentration 30: 15
  phage screen NGS read-out at Target Concentration 100: 38
  phage screen NGS read-out at Target Concentration 300: 77

## DPATLVCTMAANNCIYR
  phage screen NGS read-out at Target Concentration 10: 0
  phage screen NGS read-out at Target Concentration 30: 0
  phage screen NGS read-out at Target Concentration 100: 0
  phage screen NGS read-out at Target Concentration 300: 1

## DPAQMSCFSAAVYCRLF
  Phage library screen NGS readout, Target Concentration 10: 0
  Phage library screen NGS readout, Target Concentration 30: 0
  Phage library screen NGS readout, Target Concentration 100: 11
  Phage library screen NGS readout, Target Concentration 300: 10
[1]
  Phage library screen NGS readout, Target Concentration 1000: 10
[2]
  Phage library screen NGS readout, Target Concentration 1000: 17
Column 1 of 5
  Phage library screen NGS readout, BLANK: 0
Column 2 of 5
  Phage library screen NGS readout, BLANK: 0
Column 3 of 5
  Phage library screen NGS readout, BLANK: 0
Column 4 of 5
  Phage library screen NGS readout, BLANK: 0
Column 5 of 5
  Phage library screen NGS readout, BLANK: 0

## DPAMIQCLSAAVYCVHY
  phage screen NGS read-out at Target Concentration 10: 1
  phage screen NGS read-out at Target Concentration 30: 3
  phage screen NGS read-out at Target Concentration 100: 8

## DPAAYLCDMAAHNCLYL
  phage screen NGS read-out at Target Concentration 10: 1
  phage screen NGS read-out at Target Concentration 30: 0
  phage screen NGS read-out at Target Concentration 100: 0
  phage screen NGS read-out at Target Concentration 300: 0

## DPAASQCFSAAVYCAWI
  Phage library screen NGS readout, Target Concentration 10: 0
  Phage library screen NGS readout, Target Concentration 30: 0
  Phage library screen NGS readout, Target Concentration 100: 8
  Phage library screen NGS readout, Target Concentration 300: 13
[1]
  Phage library screen NGS readout, Target Concentration 1000: 16
[2]
  Phage library screen NGS readout, Target Concentration 1000: 13
Column 1 of 5
  Phage library screen NGS readout, BLANK: 0
Column 2 of 5
  Phage library screen NGS readout, BLANK: 0
Column 3 of 5
  Phage library screen NGS readout, BLANK: 0
Column 4 of 5
  Phage library screen NGS readout, BLANK: 1
Column 5 of 5
  Phage library screen NGS readout, BLANK: 0

## DPALSQCVYAAVFCQNL
  phage screen NGS read-out at Target Concentration 10: 0
  phage screen NGS read-out at Target Concentration 30: 2
  phage screen NGS read-out at Target Concentration 100: 0
  phage screen NGS read-out at Target Concentration 300: 4

## DPALQSCLSAAVYCTVS
  Phage library screen NGS readout, Target Concentration 10: 0
  Phage library screen NGS readout, Target Concentration 30: 0
  Phage library screen NGS readout, Target Concentration 100: 6
  Phage library screen NGS readout, Target Concentration 300: 10
[1]
  Phage library screen NGS readout, Target Concentration 1000: 9
[2]
  Phage library screen NGS readout, Target Concentration 1000: 10
Column 1 of 5
  Phage library screen NGS readout, BLANK: 0
Column 2 of 5
  Phage library screen NGS readout, BLANK: 0
Column 3 of 5
  Phage library screen NGS readout, BLANK: 0
Column 4 of 5
  Phage library screen NGS readout, BLANK: 0
Column 5 of 5
  Phage library screen NGS readout, BLANK: 0

## DPAFSECVYAAIYCVHS
  phage screen NGS read-out at Target Concentration 10: 0
  phage screen NGS read-out at Target Concentration 30: 0
  phage screen NGS read-out at Target Concentration 100: 0
  phage screen NGS read-out at Target Concentration 300: 7

## DPAEYHCDAAAVWCYLM
  phage screen NGS read-out at Target Concentration 10: 0
  phage screen NGS read-out at Target Concentration 30: 0
  phage screen NGS read-out at Target Concentration 100: 2
  phage screen NGS read-out at Target Concentration 300: 19

## DPAVQSCLSAAVYCAFR
  Phage library screen NGS readout, Target Concentration 10: 2
  Phage library screen NGS readout, Target Concentration 30: 9
  Phage library screen NGS readout, Target Concentration 100: 68
  Phage library screen NGS readout, Target Concentration 300: 106
[1]
  Phage library screen NGS readout, Target Concentration 1000: 117
[2]
  Phage library screen NGS readout, Target Concentration 1000: 118
Column 1 of 5
  Phage library screen NGS readout, BLANK: 0
Column 2 of 5
  Phage library screen NGS readout, BLANK: 1
Column 3 of 5
  Phage library screen NGS readout, BLANK: 2
Column 4 of 5
  Phage library screen NGS readout, BLANK: 0
Column 5 of 5
  Phage library screen NGS readout, BLANK: 1

## DPADLLCHMAAQNCLYR
  phage screen NGS read-out at Target Concentration 10: 1
  phage screen NGS read-out at Target Concentration 30: 0
  phage screen NGS read-out at Target Concentration 100: 0
  phage screen NGS read-out at Target Concentration 300: 0

## DPAFSACVYAAYMCNQD
  phage screen NGS read-out at Target Concentration 10: 0
  phage screen NGS read-out at Target Concentration 30: 0
  phage screen NGS read-out at Target Concentration 100: 1
  phage screen NGS read-out at Target Concentration 300: 4

From patent US20240376151A1, “STAPLED PEPTIDES AND METHODS THEREOF” (FOG PHARMACEUTICALS, INC., priority 2022, published 2024)
